This passage reports Km results from article PMC4882453, “Monoacylglycerol Lipases Act as Evolutionarily Conserved Regulators of Non-oxidative Ethanol Metabolism” (The Journal of Biological Chemistry, 2016).

Substrate in the data set: CCCCCCCCCCCCCCCC(=O)OCC
The data set can be described thus: release of fatty acid, substrate saturation, nonlinear regression. Type of data set: biochemical, Saccharomyces cerevisiae. Conditions: CHAPS-emulsified substrate, Bistris propane, pH 7, 1 mM EDTA, 37 °C, 30 min.

B1: His6-tagged Yju3p (Saccharomyces cerevisiae S288C) (protein)
chain: MAPYPYKVQTTVPELQYENFDGAKFGYMFWPVQNGTNEVRGRVLLIHGFGEYTKIQFRLMDHLSLNGYESFTFDQRGAGVTSPGRSKGVTDEYHVFNDLEHFVEKNLSECKAKGIPLFMWGHSMGGGICLNYACQGKHKNEISGYIGSGPLIILHPHTMYNKPTQIIAPLLAKFLPRVRIDTGLDLKGITSDKAYRAFLGSDPMSVPLYGSFRQIHDFMQRGAKLYKNENNYIQKNFAKDKPVIIMHGQDDTINDPKGSEKFIQDCPSADKELKLYPGARHSIFSLETDKVFNTVFNDMKQWLDKHTTTEAKP
notes: expression construct described previously (YJU3 for the GFP fusions was cloned from BY4742 genomic DNA)
One may read the Km as the concentration of substrate that gives half-maximal velocity. B1: the Km turned out to be 780 µM.
